From the Human Domainome abundance scans (Beltran et al. 2025)

B1: RNA-binding E3 ubiquitin-protein ligase MEX3C, residues 325 to 391; numbered along this chain, Q5U5Q3 (parent)
chain: GQTTVQVRVPYRVVGLVVGPKGATIKRIQQQTHTYIVTPSRDKEPVFEVTGMPENVDRAREEIEMHI
B2: Histone-lysine N-methyltransferase 2A, residues 1148 to 1194; numbered along this chain, Q03164 (parent)
chain: KGRRSRRCGQCPGCQVPEDCGVCTNCLDKPKFGGRNIKKQCCKMRKC

Variants of: B1
Assay: abundance fitness (aPCA) (normalised: wild type 0, dead -1); higher = more abundant; growth selection in yeast, the domain comes from the species named
Conditions: Homo sapiens

Abundance fitness: each site, then its substitutions
V14: E -0.51, R -0.372, W -0.349, I 0.114, Q -0.881, C -0.89, S -0.603, T -0.524, G -0.746, D -0.529, P -0.703, F -0.315, Y -0.51, M -0.185, K -0.636
Q6: P -0.3, M -0.151, S -0.056, H -0.099, T -0.247, D -0.657, E -0.218, A -0.1, R 0.159, V 0.071, C -0.028, Y 0.269, W -0.513, L -0.022, G -0.16
P10: H -0.825, I -0.634, Q -0.754, D -0.372, W -0.841, G -0.767, T -0.611, A -0.708, F -1.1, V -0.707, M -0.885, K -0.563, S -0.793, L -0.693, C -0.655
T3: D -0.45, M -0.556, G -0.519, Y -0.296, A -0.799, E -0.385, C -0.256, L -0.163, P -0.787, W -1.1, N -0.672, V 0.008, S -0.309, H -0.252, Q -0.258, I 0.306
V5: C -0.475, G -0.387, A -0.34, R -0.336, M -0.452, W -0.83, I 0.2, Q -0.294, S -0.74, E -0.667, L -0.016, K -0.18, F -0.363, T -0.478, H -0.822, D -1.05
T4: V -0.477, H -0.38, M -0.751, G -0.646, N -0.812, K -0.414, S -0.757, L -0.756, C -0.718, A -0.523, R -0.425, F -0.881, I -0.622, D -0.631, E -1.06, W -0.832
Y11: L -0.029, R 0.262, S 0.236, W 0.136, M 0.154, E 0.402, P 0.128, N -0.014, H 0.17, F -0.514, A 0.171, G -0.013, Q 0.233, K 0.369
Q2: W -0.302, L 0.017, H 0.017, F 0.057, A -0.409, P -0.181, I -0.174, V -0.069, M -0.001, C -0.148, R -0.208, D -0.155, G -0.403, N -0.061, K 0.145, S -0.356, Y -0.047, E -0.022
V17: F -0.711, E -0.537, D -0.702, A -0.436
V13: D 0.057, G -0.153, K 0.216, S 0.127, L 0.114, W -0.098, E -0.334, Y -0.073, M 0.075, F 0.022, N -0.207, Q 0.169, P -0.809, C -0.024, I -0.366, A -0.029, R -0.25, T -0.006, H -0.041
G15: H -0.059, C -0.59, R -0.212, P -0.093, M -0.459, A -0.067, I -0.872, Q -0.181, E -0.121, D 0.018, K -0.235, Y -0.691, S -0.128, V -0.986, N -0.234, W -0.779
V7: R -0.851, D -0.571, I 0.092, W -0.92, L -0.537, S -0.516, C -0.769, A -0.731, T -0.802, H -0.603, F -0.124, Q -0.603, G -0.809, P -0.567, N -0.987, E -0.39, K -0.47, Y -0.717
R12: N 0.141, H -0.189, A 0.001, T -0.201, K 0.063, P 0.054, S 0.175, Q 0.013, I -0.373, V -0.652, E 0.136, L -0.588, Y -0.064, F -0.11, D 0.159, G 0.143, M -0.401
R8: W -0.382, C -0.675, D -0.666, N -0.971, E -0.52, Y -0.175, L -0.601, K 0.038, H -0.345, S -0.377, T -0.209, P -0.18, I -0.375, A -0.608, F -0.666, Q -0.683, G -0.763, V -0.66, M -0.555
G1: S -0.094, A -0.27, V -0.283, R -0.022, D -0.136
L16: K -0.192, I -0.174, T -0.095, E -0.133, H -0.047, C -0.213, D -0.058, Q 0.034, W -0.122, A -0.052, Y -0.228, G -0.506, V -0.353, M 0.316, F -0.139, R 0.075, N -0.312, P -0.615
V9: L -0.873, I -0.54, H -0.928, A -0.657, E -0.733, Q -0.993, F -0.933, W -0.767, G -0.551, D -0.834, M -0.641, P -0.825, K -0.776, T -0.84, N -0.954, R -0.609

Variants of: B2
Assay: as above
Conditions: Homo sapiens

Abundance fitness of substitutions, site by site:
C47: F -0.52, D -0.347, A -0.695, R -0.925, T -0.884, P -0.789, Y -0.967, S -0.619, W -0.527
K46: Q 0.153, G -0.145, P -0.341, I 0.356, H -0.02, S -0.12, F -0.21, R -0.205, N -0.728, A 0.206, V 0.039, W -0.31, D 0.231, C -0.17, E 0.105, Y -0.128, M 0.074
R45: I -0.439, G -0.429, L -0.527, K -0.529, M -0.308, E -0.682, S -0.349, A -0.659, D -0.411, W -0.662, Y -0.735, H -0.737, P -0.67, V -0.492, T -0.597, Q -0.52
K43: R -0.27, H 0.37, G -0.312, F -0.224, V 0.108, L 0.07, Y 0.046, E 0.179, W -0.12, D 0.018, I 0.121, P -0.85, M -0.031, T 0.09, S -0.112, Q -0.215, A -0.015
M44: E 0.003, K -0.037, I -0.021, Q 0.037, P -0.659, S -0.335, R -0.023, A -0.012, V -0.213, C -0.484, Y -0.205, G -0.251, N -0.253, H -0.181, D -0.242, W -0.151, T -0.283
C42: Y -0.792
